Results on four molecules are retold here after publication PMC5705802, “A hypermorphic antioxidant response element is associated with increased MS4A6A expression and Alzheimer's disease”.

The target of data set [1] is T1, FOS;JUN (Homo sapiens?;Homo sapiens?, UniProt P01100;P05412 1-380;1-331, |). The data set can be described thus: competition EMSA; unlabeled vs labeled N1; 20 mM HEPES (pH not stated), 4 mM MgCl2, 20 mM KCl, 5 mM DTT, 1 mM EDTA, 100 ug/ml BSA, 4% glycerol, poly(dI-dC), 30 min room temperature; native gel 1X TBE. As to conditions: protein: commercial;commercial; tags: ;; copies: 1;1; blunt. In general terms: In EMSA bound probe runs differently from free probe, usually more slowly.
T1 sequence (P01100 whole entry, chain 1 of 2): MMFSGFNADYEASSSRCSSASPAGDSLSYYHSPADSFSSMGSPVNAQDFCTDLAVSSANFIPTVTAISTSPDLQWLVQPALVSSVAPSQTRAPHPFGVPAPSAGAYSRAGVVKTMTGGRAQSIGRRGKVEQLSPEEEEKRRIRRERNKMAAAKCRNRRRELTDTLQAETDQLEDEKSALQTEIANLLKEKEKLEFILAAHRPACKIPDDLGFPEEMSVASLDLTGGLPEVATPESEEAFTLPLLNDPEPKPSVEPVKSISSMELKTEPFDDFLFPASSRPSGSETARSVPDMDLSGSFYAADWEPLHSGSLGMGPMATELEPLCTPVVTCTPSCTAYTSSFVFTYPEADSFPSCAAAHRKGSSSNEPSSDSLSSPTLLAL
T1 sequence (P05412 whole entry, chain 2 of 2): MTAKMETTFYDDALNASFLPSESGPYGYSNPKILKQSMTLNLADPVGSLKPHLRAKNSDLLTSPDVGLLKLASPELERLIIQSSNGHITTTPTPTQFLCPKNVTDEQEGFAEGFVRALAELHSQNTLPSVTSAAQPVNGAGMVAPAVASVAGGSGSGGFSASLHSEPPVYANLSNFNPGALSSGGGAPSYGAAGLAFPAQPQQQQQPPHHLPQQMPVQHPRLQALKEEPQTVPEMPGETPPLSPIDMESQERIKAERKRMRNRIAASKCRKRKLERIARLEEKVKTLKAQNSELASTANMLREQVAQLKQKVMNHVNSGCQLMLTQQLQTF

The target in data set [2] is T2, NRF1;MAFG (Homo sapiens;Homo sapiens?, UniProt Q14494;O15525 1-772;1-162, |). The description is as above. As to conditions: protein: ivt;commercial; tags: His (plasmid pPB-N-His-NRF1, abm PV028854);; copies: 1;1; blunt.
For data set [3], the target named is T3, NRF2;MAFG (Homo sapiens;Homo sapiens?, UniProt Q16236;O15525 1-605;1-162, |). The data set can be described thus: competition EMSA; excess unlabeled vs labeled N1; 20 mM HEPES (pH not stated), 4 mM MgCl2, 20 mM KCl, 5 mM DTT, 1 mM EDTA, 100 ug/ml BSA, 4% glycerol, poly(dI-dC), 30 min room temperature; native gel 1X TBE. The settings on record: protein: recombinant;commercial; tags: His, Flag3 (plasmid pPROHEX-HC-Flag3-NRF2);; copies: 1;1; blunt.

Data set [4] addresses T1, FOS;JUN. The data set can be described thus: EMSA; 75 nM each; unlabeled N1 also competes; 20 mM HEPES (pH not stated), 4 mM MgCl2, 20 mM KCl, 5 mM DTT, 1 mM EDTA, 100 ug/ml BSA, 4% glycerol, poly(dI-dC), 30 min room temperature; native gel 1X TBE. As to conditions: protein: commercial;commercial; tags: ;; copies: 1;1; label: IRDye-700 as probe; blunt.
For data set [5], the target named is T3, NRF2;MAFG. The data set can be described thus: EMSA; 75 nM NRF2, 37.5 nM MAFG; unlabeled N1 also competes; 20 mM HEPES (pH not stated), 4 mM MgCl2, 20 mM KCl, 5 mM DTT, 1 mM EDTA, 100 ug/ml BSA, 4% glycerol, poly(dI-dC), 30 min room temperature; native gel 1X TBE. The settings on record: protein: recombinant;commercial; tags: His, Flag3 (plasmid pPROHEX-HC-Flag3-NRF2);; copies: 1;1; label: IRDye-700 as probe; blunt.

Data set [6] has as its target T2, NRF1;MAFG. Briefly: EMSA; TNT NRF1 2 ul/20 ul, 37.5 nM MAFG; unlabeled N1 also competes; 20 mM HEPES (pH not stated), 4 mM MgCl2, 20 mM KCl, 5 mM DTT, 1 mM EDTA, 100 ug/ml BSA, 4% glycerol, poly(dI-dC), 30 min room temperature; native gel 1X TBE. The settings on record: protein: ivt;commercial; tags: His (plasmid pPB-N-His-NRF1, abm PV028854);; copies: 1;1; label: IRDye-700 as probe; blunt.

The target in data set [7] is T2, NRF1;MAFG. The data set can be described thus: competition EMSA; unlabeled vs labeled N1; legend once says NRF2 for these lanes (apparent typo); 20 mM HEPES (pH not stated), 4 mM MgCl2, 20 mM KCl, 5 mM DTT, 1 mM EDTA, 100 ug/ml BSA, 4% glycerol, poly(dI-dC), 30 min room temperature; native gel 1X TBE. The settings on record: protein: ivt;commercial; tags: His (plasmid pPB-N-His-NRF1, abm PV028854);; copies: 1;1; blunt.

Substitutions are numbered along the chain they refer to.

B1: MS4A6A ARE rs667897A (dsDNA)
DNA 1: CTGCGCTCCAAACCCGCTGTGTCATACCATACCGGATGT
DNA 2: ACATCCGGTATGGTATGACACAGCGGGTTTGGAGCGCAG
For B1, the binding result in the data set with FOS;JUN [1], with NRF1;MAFG [2] and with NRF2;MAFG [3] was “binds” in each case.

B2: MS4A6A rs667897G (dsDNA)
DNA 1: B1 DNA 1 with A24G
DNA 2: B1 DNA 2 with T16C
Consider B2, for which the binding result with FOS;JUN [1] and with NRF2;MAFG [3] was “no binding” each time.

B3: NQO1 ARE WT (NQO1WT) (dsDNA)
DNA 1: AATCCGCAGTCACAGTGACTCAGCAGAATCTGAGCCTAG
DNA 2: CTAGGCTCAGATTCTGCTGAGTCACTGTGACTGCGGATT
Take B3: the binding result with FOS;JUN [4], with NRF2;MAFG [5] and with NRF1;MAFG [6] was “binds” throughout.

B4: NQO1 ARE mutant (NQO1mut) (dsDNA)
DNA 1: AATCCGCAGTCACAGACTCCTACGAGAATCTGAGCCTAG
DNA 2: CTAGGCTCAGATTCTCGTAGGAGTCTGTGACTGCGGATT
As for B4, the binding result in the data set with FOS;JUN [1] and with NRF1;MAFG [7] was “no binding” throughout.
